Target: oxidised human Prdx6 (Peroxiredoxin 6), peroxidatic cysteine in the sulfenic acid form (human) (UniProt P30041)
Assay: SEC; Sephadex G-75, 20 mM Tris-HCl pH 7.0, 500 ul of 2 mg/ml protein, void volume by Blue dextran

For “oxidised human Prdx6 (Peroxiredoxin 6), peroxidatic cysteine in the sulfenic acid form (from UniProt P30041 1-224) (enzyme)”, the stoichiometry N was 2.
